{"source": "paper PMC4546937", "origin": "cited, not measured here", "target": "IL-13Ralpha1 (Homo sapiens) (UniProt P78552)", "sequence (P78552 22-343)": "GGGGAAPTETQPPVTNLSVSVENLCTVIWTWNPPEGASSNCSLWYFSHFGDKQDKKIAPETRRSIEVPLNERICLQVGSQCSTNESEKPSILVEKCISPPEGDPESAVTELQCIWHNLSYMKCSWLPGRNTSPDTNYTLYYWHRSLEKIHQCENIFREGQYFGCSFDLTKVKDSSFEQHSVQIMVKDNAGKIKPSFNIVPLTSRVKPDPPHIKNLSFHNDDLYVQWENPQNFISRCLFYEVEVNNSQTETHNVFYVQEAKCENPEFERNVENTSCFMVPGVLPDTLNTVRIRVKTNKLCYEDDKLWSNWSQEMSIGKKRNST"}
{"substance": "IL-13 (from UniProt P35225)", "values": [{"measurement": "Kd", "value": 30, "unit": "nM"}]}
